Results taken from US20220288203A1.

B1: Humanized Podo447 (humanized_podo447VH_hIgG1C + humanized_podo447VL6_hIgkC) (antibody, V domains shown)
VH: EVQLVESGGGLVQPGRSLRLSCTASGFSLSGYQMNWVRQAPGKGLEWVGYIWSDGGTDYTASVKGRFTISRDGSKSIAYLQMNSLKTEDTAVYYCAREGYWLGAFDPWGQGTSVTVSA
VL: AAQLTQSPSPLSASVGDRVTITCQSSQSVHHKNDLAWYQQKPGKAPKLLIYYTSTLASGVPSRFSGSGSGTDFTLTISSLQPEDFATYYCAGVYEGSSDNRAFGGGTKVEIKR
B2: Podo447, recombinant rabbit/human chimeric anti-podocalyxin antibody (rabbit V genes, human IgG1 and kappa constant regions) (antibody, V domains shown)
VH: QSLEESGGRLVTPGTPLTLTCTASGFSLSGYQMNWVRQAPGKGLEWIGYIWSDGGTDYASWAKGRFTISKTSSTTVDLKMTSLTTEDTATYFCAREGYWLGAFDPWGPGTLVTVSS
VL: AAVLTQTPSPVSAAVGATVSVSCQSSQSVHHKNDLAWFQQKPGQPPKLLIYYTSTLASGVPSRFKGSGSGTQFTLTISDLECDDAATYYCAGVYEGSSDNRAFGGGTEVVVKR

Experiments:
[1] = molecular target: Human podocalyxin as endogenously expressed and displayed by tumor cell lines (A172, SKOV3, MIA PaCa-2, MDA-MB-231) (human) (UniProt O00592); assay: flow cytometry titration on A172 cells, four-parameter fit (Prism)
Human podocalyxin as endogenously expressed and displayed by tumor cell lines (A172, SKOV3, MIA PaCa-2, MDA-MB-231) (human), sequence (O00592 23-558): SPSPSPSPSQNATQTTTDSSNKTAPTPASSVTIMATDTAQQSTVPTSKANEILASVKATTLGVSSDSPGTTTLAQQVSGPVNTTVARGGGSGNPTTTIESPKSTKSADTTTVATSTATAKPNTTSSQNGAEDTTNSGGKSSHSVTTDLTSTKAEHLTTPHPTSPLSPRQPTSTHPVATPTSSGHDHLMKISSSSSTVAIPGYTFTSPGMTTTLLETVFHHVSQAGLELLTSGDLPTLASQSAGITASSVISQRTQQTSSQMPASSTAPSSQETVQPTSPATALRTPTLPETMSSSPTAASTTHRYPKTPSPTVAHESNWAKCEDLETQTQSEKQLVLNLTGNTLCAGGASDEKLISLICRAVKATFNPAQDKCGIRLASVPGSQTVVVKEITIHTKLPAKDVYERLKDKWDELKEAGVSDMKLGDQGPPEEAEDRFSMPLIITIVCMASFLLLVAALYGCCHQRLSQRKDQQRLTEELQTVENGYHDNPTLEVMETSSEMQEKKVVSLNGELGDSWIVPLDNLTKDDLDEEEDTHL

[2] = molecular target: Human podocalyxin as endogenously expressed and displayed by tumor cell lines (A172, SKOV3, MIA PaCa-2, MDA-MB-231) (human) (UniProt O00592); assay: KinExA 3200; titrated A172 cells with constant antibody, 16 h equilibrium
[3] = molecular target: Human podocalyxin as endogenously expressed and displayed by tumor cell lines (A172, SKOV3, MIA PaCa-2, MDA-MB-231) (human) (UniProt O00592); assay: KinExA 3200; titrated A172 cells with constant antibody, 16 h equilibrium, free antibody measured

| Binder | Bottom (best-fit) [1] | LogIC50 [1] | Span (best-fit) [1] | Top (best-fit) [1] | Epitopes/Cell (epitopes/cell) [2] | Kd High [2] [nM] | Kd Low [2] [nM] | Kd [3] [nM] |
| --- | --- | --- | --- | --- | --- | --- | --- | --- |
| B1 | 1940 | 2.09 | 236000 | 238000 | 233000 | 0.0459 | 0.00459 | 0.0144 |
| B2 | 8630 | 2.28 | 371000 | 380000 | 420000 | 0.0249 | 0.0023 | 0.00757 |
